Experimental data taken from publication PMC8927971.

System: CIZ1 N571ΔPLD2 (Mus musculus)
Test: EMSA
Conditions: 10 mM Tris-HCl pH 7.5, 30 mM NaCl, 2.5 mM MgCl2, 0.2 mM DTT, 0.1% IGEPAL CA-630, 0.1 mg/ml yeast tRNA, 0.4 U RNaseOUT, 1% glycerol; 30 C 20 min; 0.7% agarose …

Which K half does the source give for Xist repeat A here?
The K half was 100 nM.

Which K half does the source give for Xist repeat E proximal here?
Its K half is 100 nM.
